These results are taken from publication PMC5656576.

For data set [1], the target named is T1, UAP56 (UniProt Q13838 1-428). In words: EMSA. Particulars: protein: recombinant; tags: GST tag removed with PreScission protease; chain copies: 2; label: 32P; single strand; partly complementary ends. On the technique in general: A gel shift assay detects complexes by their altered migration in electrophoresis.
In data set [2] the target is NP (nucleoprotein), His-tagged (Influenza A virus, UniProt P03466 1-498). The data set can be described thus: EMSA. Conditions: protein: recombinant; tags: C-terminal His tag (encoded in primer); label: 32P; single strand; partly complementary ends.
The target in data set [3] is NP in preformed NP-UAP56 complex (Influenza A virus, UniProt P03466 1-498). The data set can be described thus: EMSA. Conditions: protein: recombinant; tags: C-terminal His tag (encoded in primer); chain copies: 6; label: 32P; single strand; partly complementary ends.
In data set [4] the target is T1, UAP56. In words: EMSA; UAP56 alone, 0.8-7.2 pmol. Particulars: protein: recombinant; tags: GST tag removed with PreScission protease; chain copies: 2; label: 32P; single strand; partly complementary ends.

T1 sequence (Q13838 whole entry): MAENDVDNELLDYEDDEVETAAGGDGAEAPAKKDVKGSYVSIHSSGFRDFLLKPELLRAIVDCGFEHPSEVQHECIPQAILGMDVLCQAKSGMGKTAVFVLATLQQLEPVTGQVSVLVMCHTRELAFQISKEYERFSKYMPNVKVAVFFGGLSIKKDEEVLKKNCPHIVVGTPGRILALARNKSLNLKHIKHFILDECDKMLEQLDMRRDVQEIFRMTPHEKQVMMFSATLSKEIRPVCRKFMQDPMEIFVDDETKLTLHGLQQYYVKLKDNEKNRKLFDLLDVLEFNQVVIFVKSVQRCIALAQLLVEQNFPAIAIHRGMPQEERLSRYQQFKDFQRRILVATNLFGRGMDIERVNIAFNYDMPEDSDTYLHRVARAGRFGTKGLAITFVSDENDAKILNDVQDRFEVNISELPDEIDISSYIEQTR
NP (nucleoprotein), His-tagged, sequence (P03466 whole entry): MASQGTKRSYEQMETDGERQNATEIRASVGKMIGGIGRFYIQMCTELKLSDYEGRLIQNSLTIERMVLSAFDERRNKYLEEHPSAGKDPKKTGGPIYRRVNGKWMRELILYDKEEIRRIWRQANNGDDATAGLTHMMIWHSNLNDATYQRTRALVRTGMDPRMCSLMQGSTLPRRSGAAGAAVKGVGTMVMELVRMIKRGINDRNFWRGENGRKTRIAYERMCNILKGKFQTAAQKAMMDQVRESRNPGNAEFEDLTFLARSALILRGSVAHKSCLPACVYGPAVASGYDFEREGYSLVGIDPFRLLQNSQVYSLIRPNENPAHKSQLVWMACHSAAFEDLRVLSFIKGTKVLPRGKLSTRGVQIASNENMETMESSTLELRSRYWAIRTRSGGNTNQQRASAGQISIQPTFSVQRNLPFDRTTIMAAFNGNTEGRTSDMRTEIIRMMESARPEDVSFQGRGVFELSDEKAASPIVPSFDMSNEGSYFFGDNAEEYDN
NP in preformed NP-UAP56 complex, sequence (P03466 whole entry, one chain of several): as the sequence (P03466 whole entry) above

B1: 53 nt model vRNA (ssRNA)
RNA: AGUAGAAACAAGGGUGUUUUUUCAUAUCAUUUAAACUUCACCCUGCUUUUGCU
Turning to B1, the results for the binding result in data set [1], in data set [2] and in data set [3] were “no binding”, “binds” and “binds”, respectively.

B2: 165 nt model vRNA (ssRNA)
RNA: AGUAGAAACAAGGUCGUUUUUAAACUAUUCGACACUAAUUGAUGGCCAUCCGAAUUUAUGGUCCACGGUGGUUUUUGUGAGUAUCUCGCGGGUGCGAGACUGCGACAUUAGAUUUCUUAGUUCUUUUAUUCUUUCCAUAUUGAAUAUAAUUGACCUGCUUUCGCU
Take B2: the binding result in data set [4] is listed as “no binding”; in data set [2], “binds”; in data set [3], “binds”.
